Values of other authors, collected in publication PMC10531495.
Like-named read-outs stand apart in the source and are kept apart here.

How the values were obtained:
[1] = target: IAPP (Homo sapiens) (UniProt P10997)
[2] = target: IAPP (Homo sapiens) (UniProt P10997); remark: listed apart in the source
[3] = target: IAPP (Homo sapiens) (UniProt P10997); remark: listed apart in the source
[4] = target: IAPP (Homo sapiens) (UniProt P10997); remark: listed apart in the source
[5] = target: Aβ monomer (Homo sapiens) (UniProt P05067)

Sequence of IAPP (Homo sapiens) (P10997 32-73): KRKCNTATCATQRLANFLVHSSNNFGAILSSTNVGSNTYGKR
Sequence of leucine enkephalin (P01210 whole entry, looked up): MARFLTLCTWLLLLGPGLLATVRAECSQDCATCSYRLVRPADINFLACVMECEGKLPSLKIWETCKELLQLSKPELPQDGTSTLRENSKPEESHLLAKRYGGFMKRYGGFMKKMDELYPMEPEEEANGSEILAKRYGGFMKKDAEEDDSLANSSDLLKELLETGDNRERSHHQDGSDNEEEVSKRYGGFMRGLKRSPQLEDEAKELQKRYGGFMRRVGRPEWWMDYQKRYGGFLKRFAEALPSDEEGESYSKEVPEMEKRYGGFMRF

Substance: Aβ(1–40) 1-40 (from UniProt P05067)
- Kd [1]: 48.5 nM

Substance: Aβ(25–35) 25-35 (from UniProt P05067)
- Kd [2]: 282 nM

Substance: Aβ(29–40) 29-40 (from UniProt P05067)
- Kd [3]: 200 nM

Substance: Aβ(35–40) 35-40 (from UniProt P05067)
- Kd [4]: 354 nM

Substance: leucine enkephalin (from UniProt P01210)
- Kd [5]: 60 µM
